18 sequences from a protein production outcome set (Wang et al. 2014) can be followed below.

The data set is described as follows: label from the status in PepcDB records.
As to “MGKEAVTGKVRKLTVQLDHQTGDLKGCSRRGPTPRSRAPGAKLSAPEAGPPRRGPLPRGGAGRDTLLGAKATPSSPAARRYVTALGPPQPRGSTDSACAALPQPVPHEPREAAFRLAPASERGASVSPARIPRRRRRVPAMWDPRAARTPPRELAMLLCNKSNAFYNLGKWNEAFLAAKECLQWDPTYVKGYYRAGYSLLHLLQPYEAARMFFEGLRLLQRSPDQLQVPDFLVGIFTTMSSDSIVLQSFLPCFDHIFTTGFSTEVWQYVIQKLAKKGLWHQSFLLLSAKKDRLPSNIHVSELSLQSLFEKYVFIGFYEKLEQVPKLVQWLVSIGANIETIGPNPLHALMRLCIQARESQLFRWVMDQKPEWKEHINHRDDAGCTVLHVAAAHFPGYTSRRQTEDVQMLLSFGADPTLLDGHARTVVDVLKRNKNFRAIDKINSHLEKLASSSKGLSALQEAFISKQ”, the protein production entry is “failed”.
The same measure for “MGKIHELSSVLADQIAAGEVVERPASVVKELVENAVDAHATQVDILVQESGVQSIRVIDDGDGIDDAEVLTAFKRHATSKITSREDLFRVHSLGFRGEALPSIASVADVVMNTSTGATGTSIHYRGGKLLQQSPAPLRQGTDITVTDLFFNTPARLKYLKSPQTELANILDVVNRIALSYPAVAFRLVHNAKELLKTAGRGDLQQVIAGIYGVQNARKMVAIQGSTTDFKLSGFVALPELTRASRQYITVLINGRAIKNQQLTKAVIKGYGSKLMVGRYPIAVIALTMDPLLVDVNVHPTKQEVRLSKEPELAKLVSTTITDRLVDVNLIPSALTNLGSHRREHLNTDQLAMDLNAVSSQYQVADKTTPASTEQFAASLAAATMQPSSATTMVSTTSAQPSAVNRAAVSAVVPSESAASSANQPIMISHRDELTATPVQAFDQRYQSESGALPFGETAEPLETSTAASAPTSEAPDTERFPQLRYLGQMHGTYLLAEADDGMYILDQHAAQERINYEYYRQAIGEVSADQQNLLVPIILDYPTSDVLKIKEKLPLLAELGIHLESFGGNSFIVHAHPTWFKAGQEEDTIREMIDWLLQDDKLTVAQFREKSAIMMSCKRAIKANHHLDDQQARALLAKLPTCENPFNCPHGRPVTVHFTNSDMERMFKRIQDSHEARD”: “failed”.
“MGKIQELSEQLANQIAAGEVVERPASVVKELVENALDAGSTQIDIFIEEAGLKTIQIIDNGEGIAKEDVLNAFKRHATSKIHTRDDLFRIRSLGFRGEALPSIASVSEMIVETATAEEEEGSYVILKGGKVEENRPAALRKGTKMTVSNLFYNTPARLKYVKTIQTELANIGDIVNRLALSHPKVAFRLVHDGHKMMSTTGNGDLKQTIAGIYGISTAKKMLKIEGKDLDFTLTGYVSLPEVTRASRNYLSTIINGRYIKNFALNKAIVAGYGSKLMVGRFPIAVLEIEMDPLLVDVNVHPTKQEVRLSKEKDLMALIEQAIQEVLSQEQLIPNAADNLRFKKKLPPEPKAEQMEIPLSTEQPAVKQRPGSLSYNPATGRFYAEHATDETPASSAPEAVNQTERAVDPMDDPFAPPVPESTSVAEETSAYETSSAAADSANHWETASNEQQVIAEETKITEVPDSEPSLRSSEAADEVFQEEMKLHPEFDANSAASQRELKQALNKLEEERPTERFPELEYFGQMHGTYLFAQSKDGLFIIDQHAAQERIKYEYFREKIGEVSDDLQELLVPIVIDYPNSDALKIKEQKETLAEVGIHLEDFGQNSFIVRAHPTWYPAGEEESIVREMIDMLLTTGSVSVKKFREATAIMMSCKRSIKANHYLNEQQARVLLKDLALCENPFNCPHGRPVLIHFTNSDMERMFKRIQDPH”: the protein production result is “failed”.
The same measure for “MGKKYSMRRRIWQAVIEIIIGTCLLILLLLGLTFFLRQIGQISGSETIRLSLDSDNLTISDIERDMKHYPYDYIIFDNDTSKILGGHYVKSDVPSFVASKQSSHNITEGEITYTYSSNKHFSVVLRQNSMPEFTNHTLRSISYNQFTYLFFFLGEIILIIFSVYHLIREFSKNFQAVQKIALKMGEITTFPEQEESKIIEFDQVLNNLYSKSKELAFLIEAERHEKHDLSFQVAALSHDVKTPLTVLKGNIELLEMTEVNEQQADFIESMKNSLTVFDKYFNTMISYTKLLNDENDYKATISLEDFLIDLSVELEELSTTYQVDYQLVKKTDLTTFYGNTLALSRALINIFVNACQYAKEGEKIVSLSIYDDEKYLYFEIWNNGHPFSEQAKKNAGKLFFTEDTGRSGKHYGIGLSFAQGVALKHQGNLILSNPQKGGAEVILKIKK”: “failed”; for “MGKTPEEVDEVNKAAFSTSEASATIAAMNQLHKPVDTVVAHISPEAPAAKVMAEGDVITQVAGAKATGPSQVRDAVRAKKPGETISIGFLRDGKQLTREVTLGTHPEDDKVAFLGVSMTARPLEHHHHHH”: “not failed”.
The same measure for “MGKVQPVYWRQLRDIEMENNFLLDVRTPDEFSLNTLPGAVNIPLDELRDRLDELPKDKMIYTFCAVGLRGYLAYRILVQHGFEKVRNLSGGLKTYHAAAAPIILREESENEVPLEHHHHHH”: “not failed”; for “MGLFDEVVGAFLKGDAGKYQAILSWVEEQGGIQVLLEKLQSGGLGAILSTWLSNQQRNQSVSGEQLESALGTNAVSDLGQKLGVDTSTASSLLAEQLPKIIDALSPQGEVSAQANNDLLSAGMELLKGKLFR”: “not failed”; for “MGLFSKRQIGNQYETLAKQYLQRQGLRFLDQNYLTKFGEIDLIFQQDETIVFVEVKYRKNDHFGSAAEMVTNAKMRKLIKTAQVWLSQQRTMNTIDYRFDVIAIHDSGRDINWIQNAISEG”: “failed”.
The same measure for “MGLGRYLPYLLSAALLLLCGCERTDTHAQPAKENGEIKVAPYGSWQSPLSAADVFKQTDDIAELQSVGNAIYFAESSGRDQGKVGIKRLDGLGKVTQVVLPDFNVKSTVHEYGGAAFLGIGKSLFATKMQDQLFYRFAPNQPPLPLTPNGTRHADCVAYPKGSRIICVREDHRQGGEPKASLVTINLNFAGEGDTFVSGHDFISSPTISPDNTQLAWITWEHPYMPWDNSVLWLGELDRKGQLKNVRKVSTPEASSVAQPLFGPDGKLYVVSDISNWWNIYRVTPSYTLEPVLSKNAEFAVPDWRLGNHNYAFENATTLIASYVEGNRAALLRIHLDSELTESLAIDFAEITQVVKGEDGVYFVGAKATPEKGIYRVVGRGTELVYAPALANLNPNYVSRAINIAFATGKDQQAYGYFYGPVNPKYVPPHDTRPPLIVMLHGGPTSRASLAYRSEIQFWTSRGFAVLDLNFRGSSGFGRAYRQSLYGKWGESDVEDAVNAAKYLVAKGWVDANKLAIRGISAGGLTVMSSLAFYNVFQAGVSYEGISDVEQLAKSTHKFESGYLDQLIGPYPENTDRYRELSPLNHLDGLNEPLLIFQSLRNKIVPTSQSRQIYDALKAKGVPTAYIDYGDDSDEGRTPEHKAAGLETELAFYGQVFKFTPAGKLPPLILDNISALTP”: “failed”; for “MGLGSSNRQTDDWNAKLYDERHRFVSAYGEDLIQWLAPKEGECVLDLGCGTGDLTEQIHQLGSRVIGVDVSESMIEQAKGKFPHLDFQVAEATDLSFSEKFDAIFSNAVLHWIKDAEEALTVIYRSLKPGGRFVAEFGGKGNVETIVNTLADTMSQADSRWSKEELPWFFPSIGQYTSLMEQVGFRVTHALHFNRPTLLEDGDGIRHWLAMFAESVLEGKSETERAEIVRFVEAEVKDALFDGTNWWADYKRIRVVGMKQL”: “failed”.
“MGLKGFAEGGIASIVAGCSTHPLDLIKVRMQLQGESAPIQTNLRPALAFQTSTTVNAPPLRVGVIGVGSRLIREEGMRALFSGVSATVLRQTLYSTTRMGLYDIIKGEWTDPETKTMPLMKKIGAGAIAGAIGAAVGNPADVAMVRMQADGRLPLTDRRNYKSVLDAITQMIRGEGVTSLWRGSSLTINRAMLVTSSQLASYDSVKETILEKGLLKDGLGTHVSASFAAGFVASVASNPVDVIKTRVMNMKVVAGVAPPYKGAVDCALKTVKAEGIMSLYKGFIPTVSRQAPFTVVLFVTLEQVKKLFKDYDF”: the protein production entry is “failed”.
For the sequence “MGLLVVKAQRQLRKIDNSKVFQGVVIAVILLSALLIGAKTHNLSSNVVAILLLMDVAVTVFFAIEISIRYLACPQKKNFFKSGWNIFDTVIVIGSLVPSGGSGVLLARLLRVFRVLRLVSMVPELRLLINALLKAIPRMGYIALLMFVIFYIYAAIGSMYFHSINEVLWGDVSISMLTLFRVATFEDWTDVMYETMAVHPLSWIYYLTFIFLTAFIFLNMMVGTVLEVMSQEHEQFRAEQHGESGDGGEPASRAQIDKLESEIAEIKALLLAKT”, the protein production entry is on record as “failed”.
The same measure for “MGLVIYDTLARRKVPFEPAVPGHVGIYVCGPTVYADPHLGHARGPVVYDVLRRYLLHKGYKVRFVSNITDVGHLTDDADEGEDKIVRRAKLERLEPMEVAEKYTWSYFDAMQALNVLRPSIAPRASGHIPEMLELTERLLARGVAYERKGSVYFRVRSFPEYGKLSGKRLEELRAGARVEVREEKEDPLDFALWKAAEPGHIMRWKSPWGEGYPGWHIECTAMSLKYLGEGFDLHAGGIDLQFPHHECEIAQAEAAGFRFARHWMHHNHVLLEGEKMAKSTGNLVLLHDLLEAHEPMALRFYLLQTHYRSPMDFTWEGLESAKRGYGRLLHAYREVRGRKKTAPPGTTPELERALDALEKAFMEAIEDDLSTPEALAALFAFLPELHKLLPEAKAESLARAEAVFHTLGEGILGLFPERVLEERVSGPLLEGLIALLLELREEARRAKDYEKSDLIRERLRALGVIVEDTKEGPRWRLER”: “not failed”; for “MGLWAAVHAERRGIATIIADAGRLGGGASGGLLGALMPHMPDRWSEKKQFQFDALVSLEAEIAALEAATGLSAGYNRSGRLIPLPKPHLNRIARGHSEDAERHWQAGERRFHWHVVDRPDADGWVDASAGASGFVHDTLAARVAPRSLMSALIASLRQAKFVRILEYAAVAGLDPDRGTADIGGETIAFSRCILAAGHQSFPLLQELTLGPKKPLGQPVKGQATLLKAAIDPALPTIFLDGLYIVAHEGGHVAIGSTSENRFNDPFSTDAQLDALIETARAIVPILRDAPVVERWAGLRPKAIDRDPMIGCHPDHPRLIALTGGFKVSFGLAHRLAEAAVCIADDIDCEYLLPESFAISSHIAAASR”: “failed”.
The same measure for “MGMAASFARASSVIMPAPPRRYFSRQRFHNFRRLAIIGSKATRSGDTAAMTDGKHLDALTAAYAAKRPEEVAALYDRWSRTYDADMSAAGYRHPTICLALLTRHLPRGAAPLLDAGAGTGLIGEWLDISGYPEVEALDISQGMLDQAARKGVYSALHCLALGGALPFADDAYAGIVSAGVFTSGHVGVEGLNELIRICRPGGVIVLTVKNTLWEQGFAARIAELEAQGVVTRAEETRPYVSMPGEADTVPSRGLALRVN”: “failed”; for “MGMGSNGELKYEISQNAYIKLVLHSLRHKTAAVNGVLVGRISPKDDGVVEISDSVPLFHSNLALLPPLEISLIMIEEHYVAQGLSIVGYFHANERFDDVELCGVAKNIGDHISRYFPQAPILLLNNKKLEALSKGKERSPVMQLCVKDASKNWRVVGADGGSKLLLKEPSANVVLSDYISSEKWKDVTDVDDHLDDVTKDWLNPGLFN”: “failed”; for “MGMHGAAHIVWDWNGTLFHDNAAIIGATNAAFAELGLEPITLERYRALYCVPVPKFYERLIGRLPTDAEWEIMDEIFHRYYAEHRVGCGLTEGAAELLVEWQSAGHSQSILSMYVHDELVPLVRGFGIEPHFIRVDGRTGPSGGSKAEHMVRHIGALAGVAGVDPARTVVIGDAADDAVAALHVGAQAVLYTGGSHSRASLEGVGVPVVDTLAEAVEEAGRLAA”: “failed”.
The same measure for “MGMIGYFAEIDSEKINQLLESTEKPLMDNIHDTLSGLRRLDIDKRWDFLHFGLTGTSAFDPAKNDPLSRAVLGEHSLEDGIDGFLGLTWNQELAATIDRLESLDRNELRKQFSIKRLNEMEIYPGVTFSEELEGQLFASIMLDMEKLISAYRRMLRQGNHALTVIVG”: “not failed”.
